The values that follow come from patent US9969998B2, “Compositions of adenosine deaminase-2 (ADA2), variants thereof and methods of using same” (Halozyme, Inc., priority 2014, dated 2018).

Sequences and labels used below:
B1: E182A: ADA2 variant SEQ ID NO:46 (protein)
chain: IDETRAHLLLKEKMMRLGGRLVLNTKEELANERLMTLKIAEMKEAMRTLIFPPSMHFFQAKHLIERSQVFNILRMMPKGAALHLHDIGIVTMDWLVRNVTYRPHCHICFTPRGIMQFRFAHPTPRPSEKCSKWILLEDYRKRVQNVTEFDDSLLRNFTLVTQHPEVIYTNQNVVWSKFATIFFTISGLIHYAPVFRDYVFRSMQEFYEDNVLYMEIRARLLPVYELSGEHHDEEWSVKTYQEVAQKFVETHPEFIGIKIIYSDHRSKDVAVIAESIRMAMGLRIKFPTVVAGFDLVGHEDTGHSLHDYKEALMIPAKDGVKLPYFFHAGETDWQGTSIDRNILDALMLNTTRIGHGFALSKHPAVRTYSWKKDIPIEVCPISNQVLKLVSDLRNHPVATLMATGHPMVISSDDPAMFGAKGLSYDFYEVFMGIGGMKADLRTLKQLAMNSIKYSTLLESEKNTFMEIWKKRWDKFIADVATK
modifications: human ADA2 E179A, mature numbering
B2: E182T: ADA2 variant SEQ ID NO:48 (protein)
chain: B1 chain with A179T
modifications: human ADA2 E179T, mature numbering
B3: S265A: ADA2 variant SEQ ID NO:51 (protein)
chain: B1 chain with A179E, S262A
modifications: human ADA2 S262A, mature numbering
B4: S265V: ADA2 variant SEQ ID NO:52 (protein)
chain: B1 chain with A179E, S262V
modifications: human ADA2 S262V, mature numbering
B5: S265M: ADA2 variant SEQ ID NO:53 (protein)
chain: B1 chain with A179E, S262M
modifications: human ADA2 S262M, mature numbering
B6: E182S: ADA2 variant SEQ ID NO:47 (protein)
chain: B1 chain with A179S
modifications: human ADA2 E179S, mature numbering
B7: E182G: ADA2 variant SEQ ID NO:50 (protein)
chain: B1 chain with A179G
modifications: human ADA2 E179G, mature numbering
B8: E182V: ADA2 variant SEQ ID NO:49 (protein)
chain: B1 chain with A179V
modifications: human ADA2 E179V, mature numbering

Changes are numbered by the printed parent chain. Numbers in names are those of the source.

One series in a line: Adenosine deaminase (ADA) enzymatic activity assay kit. It counts as biochemical. Conditions: purified protein at 5 μg/mL. As to the method:
Adenosine deaminase activity was determined using an adenosine deaminase (ADA) assay kit (Genway, San Diego, Calif.; Cat. No. BQ014EALD) with minor modifications. The ADA assay is based on the enzymatic deamination of adenosine to inosine, which is converted to hypoxanthine by purine nucleoside phosphorylase (PNP). Hypoxanthine is then converted to uric acid and hydrogen peroxide by xanthine oxidase (XOD). Hydrogen peroxide is further reacted with N-Ethyl-N-(2-hydroxy-3-sulfopropyl)-3-methylaniline (EHSPT) and 4-aminoantipyrine (4-AA) in the presence of peroxidase (POD) to generate quinone dye, which is monitored in a kinetic manner.
Briefly, 5 μL samples in duplicates (at appropriate dilutions to measure steady-state, non-saturating enzyme activity) were added to 120 μL R1 reagent (provided by the manufacturer; 50 mM Tris HCL, pH 8.0, 2 mM 4-AA, 0.1 U/mL PNP, 0.2 U/mL XOD, 0.6 U/mL peroxidase) in a 96 well plate, according to manufacturer's instructions. The mixtures were incubated at 37° C. for approximately 5 min and 60 μL of R2 reagent (provided by the manufacturer; 50 mM Tris HCl, pH 4.0, 10 mM Adenosine, 2 mM EHSPT) was added to the mixtures. Then, change in absorbance (AA) at 556 nm over time at 37° C. was measured. One unit of ADA is the amount of ADA that generates one μmole of inosine from adenosine per minute at 37° C. Adenosine deaminase activity in mU/mL was calculated using the following formula: 1 mU/mL=(ΔA/min×Tv)/(Sv×ϵ×1) • where Tv=total volume (185 μL), Sv=sample volume (5 μL), ϵ=32.2×10^−3 μM^−1 cm^−1, 1=0.5 cm.
Adenosine deaminase activity of WT rHuADA2 and variants tested above were determined using the adenosine deaminase activity (ADA) assay described in Example 4. Activity was assessed on purified rHuADA2 WT and variants that were diluted to 5 μg/mL, and then serially diluted 2 fold to generate 4 measurements.
Adenosine deaminase activity of PEGylated rHuADA2 and variants was assessed using the method described in Example 4, and compared to the activity of the corresponding non-PEGylated form.
Selected candidate variants described in Table 8 above, containing an amino acid substitution in a residue that play a role in enzymatic activity, were assessed for their adenosine deaminase activity using the method described in Example 4. To perform the experiments, purified WT rHuADA2 and tested variants were prepared at 5 μg/mL concentration to normalize the amount of protein in each experiment.
As to B1, the “Adenosine deaminase activity mU/ml” value is recorded as 8.6 mU/ml and the “Adenosine deaminase activity ΔA/min” value is 3.7 ΔA/min.

Consider B2, for which the “Adenosine deaminase activity mU/ml” value is 6.2 mU/ml and the “Adenosine deaminase activity ΔA/min” value is given as 2.7 ΔA/min.

With B3, the “Adenosine deaminase activity mU/ml” value is 47.1 mU/ml and the “Adenosine deaminase activity ΔA/min” value is 20.5 ΔA/min.

As for B4, the “Adenosine deaminase activity mU/ml” value came to 66.1 mU/ml and the “Adenosine deaminase activity ΔA/min” value is 28.8 ΔA/min.

Take B5: the “Adenosine deaminase activity mU/ml” value turned out to be 81.6 mU/ml and the “Adenosine deaminase activity ΔA/min” value was 35.5 ΔA/min.

For B6, the “Adenosine deaminase activity mU/ml” value turned out to be 9.5 mU/ml and the “Adenosine deaminase activity ΔA/min” value was 4.1 ΔA/min.

Consider B7, for which the “Adenosine deaminase activity mU/ml” value turned out to be 6.9 mU/ml and the “Adenosine deaminase activity ΔA/min” value was 3 ΔA/min.

Turning to B8, the “Adenosine deaminase activity mU/ml” value is 8 mU/ml and the “Adenosine deaminase activity ΔA/min” value is reported as 3.5 ΔA/min.

Still in this series, the particulars now being: purified protein at 5 μg/mL; compared to WT-ADA2.
Turning to B1, the “% of WT activity” value turned out to be 11%.

Regarding B2, the “% of WT activity” value came to 8%.

For B3, the “% of WT activity” value was found to be 60%.

For B4, the “% of WT activity” value is reported as 85%.

For B5, the “% of WT activity” value came to 105%.

In the case of B6, the “% of WT activity” value was found to be 12%.

B7: the “% of WT activity” value stood at 9%.

Take B8: the “% of WT activity” value stood at 10%.
